Reference: patent US20200115416A1 (REGENTS OF THE UNIVERSITY OF MINNESOTA, published 2020)
Square brackets hold non-standard residues; d marks the D form. hPhe = N[C@@H](CCc1ccccc1)C(=O)O; Nle = CCCC[C@H](N)C(=O)O; Dap = NC[C@H](N)C(=O)O

B1: c[Pro-Arg-Phe-Phe-Leu-Ala-Phe-DPro] (peptide)
peptide: cyclo(PRFFLAF[dP])
SMILES: CC(C)C[C@@H]1NC(=O)[C@H](Cc2ccccc2)NC(=O)[C@H](Cc2ccccc2)NC(=O)[C@H](CCCNC(=N)N)NC(=O)[C@@H]2CCCN2C(=O)[C@H]2CCCN2C(=O)[C@H](Cc2ccccc2)NC(=O)[C@H](C)NC1=O
B2: c[Pro-Arg-Phe-Phe-Dap-Ser-Phe-DPro] (peptide)
peptide: cyclo(PRFF[Dap]SF[dP])
SMILES: N=C(N)NCCC[C@@H]1NC(=O)[C@@H]2CCCN2C(=O)[C@H]2CCCN2C(=O)[C@H](Cc2ccccc2)NC(=O)[C@H](CO)NC(=O)[C@H](CN)NC(=O)[C@H](Cc2ccccc2)NC(=O)[C@H](Cc2ccccc2)NC1=O
B3: c[Pro-Arg-Phe-Phe-Arg-Ala-Nle-DPro] (peptide)
peptide: cyclo(PRFFRA[Nle][dP])
SMILES: CCCC[C@@H]1NC(=O)[C@H](C)NC(=O)[C@H](CCCNC(=N)N)NC(=O)[C@H](Cc2ccccc2)NC(=O)[C@H](Cc2ccccc2)NC(=O)[C@H](CCCNC(=N)N)NC(=O)[C@@H]2CCCN2C(=O)[C@H]2CCCN2C1=O
B4: c[Pro-Arg-Phe-Phe-Arg-Ser-Nle-DPro] (peptide)
peptide: cyclo(PRFFRS[Nle][dP])
SMILES: CCCC[C@@H]1NC(=O)[C@H](CO)NC(=O)[C@H](CCCNC(=N)N)NC(=O)[C@H](Cc2ccccc2)NC(=O)[C@H](Cc2ccccc2)NC(=O)[C@H](CCCNC(=N)N)NC(=O)[C@@H]2CCCN2C(=O)[C@H]2CCCN2C1=O
B5: c[Pro-Arg-Phe-hPhe-Asn-Ser-Nle-DPro] (peptide)
peptide: cyclo(PRF[hPhe]NS[Nle][dP])
SMILES: CCCC[C@@H]1NC(=O)[C@H](CO)NC(=O)[C@H](CC(N)=O)NC(=O)[C@H](CCc2ccccc2)NC(=O)[C@H](Cc2ccccc2)NC(=O)[C@H](CCCNC(=N)N)NC(=O)[C@@H]2CCCN2C(=O)[C@H]2CCCN2C1=O
B6: c[Pro-Arg-Phe-Phe-Arg-Ser-Phe-DPro] (peptide)
peptide: cyclo(PRFFRSF[dP])
SMILES: N=C(N)NCCC[C@@H]1NC(=O)[C@H](Cc2ccccc2)NC(=O)[C@H](Cc2ccccc2)NC(=O)[C@H](CCCNC(=N)N)NC(=O)[C@@H]2CCCN2C(=O)[C@H]2CCCN2C(=O)[C@H](Cc2ccccc2)NC(=O)[C@H](CO)NC1=O
B7: c[Pro-Arg-Phe-hPhe-Asn-Ser-Phe-DPro] (peptide)
peptide: cyclo(PRF[hPhe]NSF[dP])
SMILES: N=C(N)NCCC[C@@H]1NC(=O)[C@@H]2CCCN2C(=O)[C@H]2CCCN2C(=O)[C@H](Cc2ccccc2)NC(=O)[C@H](CO)NC(=O)[C@H](CC(N)=O)NC(=O)[C@H](CCc2ccccc2)NC(=O)[C@H](Cc2ccccc2)NC1=O
B8: c[Pro-Arg-Phe-hPhe-Dap-Ser-Phe-DPro] (peptide)
peptide: cyclo(PRF[hPhe][Dap]SF[dP])
SMILES: N=C(N)NCCC[C@@H]1NC(=O)[C@@H]2CCCN2C(=O)[C@H]2CCCN2C(=O)[C@H](Cc2ccccc2)NC(=O)[C@H](CO)NC(=O)[C@H](CN)NC(=O)[C@H](CCc2ccccc2)NC(=O)[C@H](Cc2ccccc2)NC1=O
B9: c[Pro-Arg-Phe-Phe-Asn-Ser-Nle-DPro] (peptide)
peptide: cyclo(PRFFNS[Nle][dP])
SMILES: CCCC[C@@H]1NC(=O)[C@H](CO)NC(=O)[C@H](CC(N)=O)NC(=O)[C@H](Cc2ccccc2)NC(=O)[C@H](Cc2ccccc2)NC(=O)[C@H](CCCNC(=N)N)NC(=O)[C@@H]2CCCN2C(=O)[C@H]2CCCN2C1=O
B10: c[Pro-Arg-Phe-hPhe-Dap-Ala-Nle-DPro] (peptide)
peptide: cyclo(PRF[hPhe][Dap]A[Nle][dP])
SMILES: CCCC[C@@H]1NC(=O)[C@H](C)NC(=O)[C@H](CN)NC(=O)[C@H](CCc2ccccc2)NC(=O)[C@H](Cc2ccccc2)NC(=O)[C@H](CCCNC(=N)N)NC(=O)[C@@H]2CCCN2C(=O)[C@H]2CCCN2C1=O
B11: c[Pro-Arg-Phe-Phe-Dap-Ser-Nle-DPro] (peptide)
peptide: cyclo(PRFF[Dap]S[Nle][dP])
SMILES: CCCC[C@@H]1NC(=O)[C@H](CO)NC(=O)[C@H](CN)NC(=O)[C@H](Cc2ccccc2)NC(=O)[C@H](Cc2ccccc2)NC(=O)[C@H](CCCNC(=N)N)NC(=O)[C@@H]2CCCN2C(=O)[C@H]2CCCN2C1=O
B12: c[Pro-Arg-Phe-Phe-Dap-Ala-Nle-DPro] (peptide)
peptide: cyclo(PRFF[Dap]A[Nle][dP])
SMILES: CCCC[C@@H]1NC(=O)[C@H](C)NC(=O)[C@H](CN)NC(=O)[C@H](Cc2ccccc2)NC(=O)[C@H](Cc2ccccc2)NC(=O)[C@H](CCCNC(=N)N)NC(=O)[C@@H]2CCCN2C(=O)[C@H]2CCCN2C1=O
B13: c[Pro-Arg-Phe-hPhe-Asn-Ala-Nle-DPro] (peptide)
peptide: cyclo(PRF[hPhe]NA[Nle][dP])
SMILES: CCCC[C@@H]1NC(=O)[C@H](C)NC(=O)[C@H](CC(N)=O)NC(=O)[C@H](CCc2ccccc2)NC(=O)[C@H](Cc2ccccc2)NC(=O)[C@H](CCCNC(=N)N)NC(=O)[C@@H]2CCCN2C(=O)[C@H]2CCCN2C1=O

biological target: T1, mouse melanocortin-1 receptor (mouse, UniProt Q01727 1-315); assay: cell-based or functional assay
T1 sequence (Q01727 whole entry): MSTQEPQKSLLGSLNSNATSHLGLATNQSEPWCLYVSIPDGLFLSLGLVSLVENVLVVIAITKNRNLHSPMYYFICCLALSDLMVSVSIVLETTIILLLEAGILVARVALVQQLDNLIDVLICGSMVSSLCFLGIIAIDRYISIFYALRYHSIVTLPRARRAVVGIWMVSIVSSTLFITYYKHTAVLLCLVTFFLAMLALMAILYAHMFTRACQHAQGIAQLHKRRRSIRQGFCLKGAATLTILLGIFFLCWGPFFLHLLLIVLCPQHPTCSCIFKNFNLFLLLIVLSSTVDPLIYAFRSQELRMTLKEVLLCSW

Binder | agonist EC50 (cAMP AlphaScreen)
B1 | > 100 µM

biological target: T2, mouse melanocortin-3 receptor (mouse, UniProt P33033 1-323); assay: cell-based or functional assay
T2 sequence (P33033 whole entry): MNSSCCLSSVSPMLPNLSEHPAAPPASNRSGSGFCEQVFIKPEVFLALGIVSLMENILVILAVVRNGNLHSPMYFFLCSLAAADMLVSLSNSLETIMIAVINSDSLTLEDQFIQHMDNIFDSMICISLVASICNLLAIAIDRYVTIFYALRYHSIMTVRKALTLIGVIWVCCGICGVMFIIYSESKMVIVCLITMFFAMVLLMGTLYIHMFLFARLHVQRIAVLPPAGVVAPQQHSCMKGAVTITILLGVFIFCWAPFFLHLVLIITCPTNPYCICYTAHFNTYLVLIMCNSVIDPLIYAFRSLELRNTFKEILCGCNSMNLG

Binder | agonist EC50 (cAMP AlphaScreen) | antagonist pA2 (Schild, agonist NDP-MSH)
B1 | > 100 µM | 5.7

biological target: T3, mouse melanocortin-4 receptor (mouse, UniProt P56450 1-332); assay: cell-based or functional assay
T3 sequence (P56450 whole entry): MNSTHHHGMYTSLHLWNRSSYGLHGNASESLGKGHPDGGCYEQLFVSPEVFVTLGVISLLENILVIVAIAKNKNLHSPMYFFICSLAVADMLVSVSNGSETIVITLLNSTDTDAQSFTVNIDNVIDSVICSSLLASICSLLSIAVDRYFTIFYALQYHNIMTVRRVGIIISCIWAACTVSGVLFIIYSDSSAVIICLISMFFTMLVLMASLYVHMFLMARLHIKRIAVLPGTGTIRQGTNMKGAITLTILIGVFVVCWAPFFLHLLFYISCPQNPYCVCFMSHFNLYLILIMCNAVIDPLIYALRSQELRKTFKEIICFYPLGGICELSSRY

Binder | agonist EC50 (cAMP AlphaScreen) | antagonist pA2 (Schild, agonist NDP-MSH)
B1 | > 100 µM | 7.34

biological target: T4, mouse melanocortin-5 receptor (mouse, UniProt P41149 1-325); assay: cell-based or functional assay
T4 sequence (P41149 whole entry): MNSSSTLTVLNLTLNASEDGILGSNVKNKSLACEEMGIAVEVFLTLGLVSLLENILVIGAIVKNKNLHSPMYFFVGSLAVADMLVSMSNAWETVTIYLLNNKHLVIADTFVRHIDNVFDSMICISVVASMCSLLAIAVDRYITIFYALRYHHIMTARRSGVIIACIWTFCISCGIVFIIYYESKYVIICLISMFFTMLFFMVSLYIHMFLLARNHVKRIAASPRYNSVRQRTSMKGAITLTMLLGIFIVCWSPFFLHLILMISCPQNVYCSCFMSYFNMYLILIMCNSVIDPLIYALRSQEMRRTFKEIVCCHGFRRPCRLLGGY

Binder | inverse agonist apparent potency | inverse agonist, % decrease from basal cAMP
B1 | 0.11 µM | -20%

biological target: T1, mouse melanocortin-1 receptor; assay: cell-based or functional assay; remark: another data set of the same source

Binder | % maximal NDP-MSH response at 100 µM (cAMP AlphaScreen) | agonist EC50 (cAMP AlphaScreen) | partial agonist efficacy, % of NDP-MSH
cyclo(P[dR]FFNAF[dP]) [c[Pro-DArg-Phe-Phe-Asn-Ala-Phe-DPro]] | 50% | – | –
cyclo(P[dR][dF][dF]NAF[dP]) [c[Pro-DArg-DPhe-DPhe-Asn-Ala-Phe-DPro]] | – | 1.3 µM | 85%
cyclo(P[dR][dF]FNAF[dP]) [c[Pro-DArg-DPhe-Phe-Asn-Ala-Phe-DPro]] | – | 0.5 µM | 90%
cyclo(PRF[dF]NAF[dP]) [c[Pro-Arg-Phe-DPhe-Asn-Ala-Phe-DPro]] | 50% | – | –
cyclo(PR[dF][dF]NAF[dP]) [c[Pro-Arg-DPhe-DPhe-Asn-Ala-Phe-DPro]] | – | 0.8 µM | 85%
cyclo(PR[dF]FNAF[dP]) [c[Pro-Arg-DPhe-Phe-Asn-Ala-Phe-DPro]] | – | 0.7 µM | –

biological target: T1, mouse melanocortin-1 receptor; assay: cell-based or functional assay; remark: another data set of the same source

Binder | agonist EC50 (cAMP AlphaScreen) | partial agonist, % receptor stimulation | % receptor stimulation at 100 µM (cAMP AlphaScreen)
B2 | 0.6 µM | 85% | –
B3 | > 100 µM | – | –
B4 | > 100 µM | – | –
B5 | > 100 µM | – | –
B6 | > 100 µM | – | –
PRFFXAFP (head-to-tail cyclic; hPhe at 4; Dap at 5; DPro at 8) [c[Pro-Arg-Phe-hPhe-Dap-Ala-Phe-DPro]] | 0.56 µM | 70% | –
B7 | – | – | 40%
cyclo(PRFFRAF[dP]) [c[Pro-Arg-Phe-Phe-Arg-Ala-Phe-DPro]] | 0.6 µM | 25% | –
B8 | – | – | 40%
B9 | 2.6 µM | 75% | –
B10 | > 100 µM | – | –
B11 | > 100 µM | – | –
B12 | 0.19 µM | – | –

biological target: T4, mouse melanocortin-5 receptor; assay: cell-based or functional assay; remark: another data set of the same source

Binder | EC50 (cAMP AlphaScreen, inverse agonist)
B2 | > 100 µM
B3 | > 100 µM
B4 | > 100 µM
B5 | > 100 µM
B6 | > 100 µM
PRFFXAFP (head-to-tail cyclic; hPhe at 4; Dap at 5; DPro at 8) [c[Pro-Arg-Phe-hPhe-Dap-Ala-Phe-DPro]] | > 100 µM
B7 | > 100 µM
cyclo(PRFFRAF[dP]) [c[Pro-Arg-Phe-Phe-Arg-Ala-Phe-DPro]] | > 100 µM
B13 | > 100 µM
B8 | > 100 µM
B10 | > 100 µM
B11 | > 100 µM
B12 | > 100 µM

biological target: T2, mouse melanocortin-3 receptor; assay: cell-based or functional assay; remark: another data set of the same source

Binder | antagonist pA2 (Schild, agonist NDP-MSH)
B2 | 6.8
B3 | 7.5
B4 | 7.1
B5 | 6.3
B6 | 7.1
PRFFXAFP (head-to-tail cyclic; hPhe at 4; Dap at 5; DPro at 8) [c[Pro-Arg-Phe-hPhe-Dap-Ala-Phe-DPro]] | 7.1
B7 | 6.5
cyclo(PRFFRAF[dP]) [c[Pro-Arg-Phe-Phe-Arg-Ala-Phe-DPro]] | 7.4
B8 | 7.2
B9 | 6.6
B10 | 6.7
B11 | 6.5
B12 | 7.1

biological target: T3, mouse melanocortin-4 receptor; assay: cell-based or functional assay; remark: another data set of the same source

Binder | antagonist pA2 (Schild, agonist NDP-MSH)
B2 | 9.1
B3 | 9.1
B4 | 9.6
B5 | 9.2
B6 | 9
B7 | 8.6
cyclo(PRFFRAF[dP]) [c[Pro-Arg-Phe-Phe-Arg-Ala-Phe-DPro]] | 8.7
B8 | 9.2
B9 | 8.5
B10 | 9.1
B11 | 9.1
B12 | 9
